Assay results: the supplement of paper PMC7125110
± gives the standard error. For part of these data: Fewer inactive variants are shown than the library holds.

B1: glmS ribozyme (parent)
chain: AUAAAAGCGCCAGAACUACAGAAAUGUAGUUGACGAGGAGGAGGUUUAUCGAAUUUUCGGCGGAUGCCUCCAAA

What was measured:
Conditions in all cases: with glucosamine-6-phosphate
glucosamine-6-phosphate [1] = variants of: B1; experiment: kcat; higher = faster cleavage; RNA array
Outline: (§1)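 Over ~14 h at 37 °C, tiles were imaged as glucosamine-6-phosphate (40 μM to 10 mM) in HEPES/KCl/Mg(OAc)2 buffer flowed across sequenced MiSeq chips. The chips carried barcoded ribozyme variants transcribed in situ by E. coli RNA polymerase and tracked with a hybridised Cy3 probe. After normalisation to baseline and to non-cleaving reference variants, one- or two-exponential decay fits of per-tile medians gave kobs. kcat and KM followed from weighted Michaelis–Menten fits across concentrations.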

glucosamine-6-phosphate [2] = variants of: B1; experiment: KM; higher = weaker cofactor use; RNA array
Outline: as §1

glucosamine-6-phosphate [3] = variants of: B1; experiment: self-cleavage kobs at 40 uM GlcN6P; higher = faster cleavage; RNA array
Outline: as §1

glucosamine-6-phosphate [4] = variants of: B1; experiment: self-cleavage kobs at 160 uM GlcN6P; higher = faster cleavage; RNA array
Outline: as §1

glucosamine-6-phosphate [5] = variants of: B1; experiment: self-cleavage kobs at 640 uM GlcN6P; higher = faster cleavage; RNA array
Outline: as §1

glucosamine-6-phosphate [6] = variants of: B1; experiment: self-cleavage kobs at 2500 uM GlcN6P; higher = faster cleavage; RNA array
Outline: as §1

glucosamine-6-phosphate [7] = variants of: B1; experiment: self-cleavage kobs at 10000 uM GlcN6P; higher = faster cleavage; RNA array
Outline: as §1

## AUAAAAGCGCAAGAACUACAGAAAUGUAGUUGACGAGGAGGAGGUUUAUCUAAUUUUCGGCGGACGCUUCCAAA [C11A G51U U65C C68U]
glucosamine-6-phosphate [1]
  kcat: 3.35e-05 ± 9e-06 s⁻¹

## AUAAAAGCGACAGAACUACAGAAAUGUAGUUGACGAGGAGGAGGUUUAUCGAAUUUUCGUCGGAUGCCUCCAAA [C10A G60U]
glucosamine-6-phosphate [1]
  kcat: 0.000974 ± 0.00015 s⁻¹
glucosamine-6-phosphate [2]
  KM: 1660 ± 470 µM
glucosamine-6-phosphate [3]
  self-cleavage kobs at 40 uM GlcN6P: 3.82e-05 ± 7.9e-06 s⁻¹
glucosamine-6-phosphate [4]
  self-cleavage kobs at 160 uM GlcN6P: 8.97e-05 ± 1.6e-05 s⁻¹
glucosamine-6-phosphate [5]
  self-cleavage kobs at 640 uM GlcN6P: 0.000243 ± 3.1e-05 s⁻¹
glucosamine-6-phosphate [6]
  self-cleavage kobs at 2500 uM GlcN6P: 0.000514 ± 8.6e-05 s⁻¹
glucosamine-6-phosphate [7]
  self-cleavage kobs at 10000 uM GlcN6P: 0.000886 ± 8.3e-05 s⁻¹

## AUAAAAGCGCCAGACCUACAGAAAUGUAGUUGACGAGGAGGUGGUUUAUCGAAUUUUCGGCGGAUGCCUCCAAA [A15C A42U]
glucosamine-6-phosphate [1]
  kcat: 1.58e-05 ± 3.7e-06 s⁻¹
glucosamine-6-phosphate [3]
  self-cleavage kobs at 40 uM GlcN6P: < 1e-05 s⁻¹
glucosamine-6-phosphate [4]
  self-cleavage kobs at 160 uM GlcN6P: < 1e-05 s⁻¹

## AUAAAAGCGCCAGAACUACAGAAAUGUAGUUGACGAGGAGGAGGUUUAUUGAAUUUUCGGCGGAUGCCGCCAAA [C50U U69G]
glucosamine-6-phosphate [1]
  kcat: 2.82e-05 ± 7.6e-06 s⁻¹
glucosamine-6-phosphate [4]
  self-cleavage kobs at 160 uM GlcN6P: 3.94e-05 ± 1.2e-05 s⁻¹
glucosamine-6-phosphate [6]
  self-cleavage kobs at 2500 uM GlcN6P: 3.39e-05 ± 1.4e-05 s⁻¹

## AUAAAAGCGCCAGAACUACAGAAAUGUAUUUGACGAGGAGGAGGUUUCUCGAAUUUUCGGCGGAUGCCUCCAAA [G29U A48C]
glucosamine-6-phosphate [1]
  kcat: 1.88e-05 ± 3.6e-07 s⁻¹
glucosamine-6-phosphate [2]
  KM: 138 ± 42 µM
glucosamine-6-phosphate [3]
  self-cleavage kobs at 40 uM GlcN6P: < 1e-05 s⁻¹
glucosamine-6-phosphate [4]
  self-cleavage kobs at 160 uM GlcN6P: < 1e-05 s⁻¹
glucosamine-6-phosphate [7]
  self-cleavage kobs at 10000 uM GlcN6P: 1.85e-05 ± 7.6e-06 s⁻¹

## AUAAAAGCGCCAGAACUACAGAAAUGUAGUUGACGAGGAGGAGGUUUAUCGAAUAUUCGGCGGCUGCCUCCAAA [U55A A64C]
glucosamine-6-phosphate [1]
  kcat: 0.000188 ± 3.5e-05 s⁻¹
glucosamine-6-phosphate [5]
  self-cleavage kobs at 640 uM GlcN6P: 2.82e-05 ± 1.2e-05 s⁻¹
glucosamine-6-phosphate [6]
  self-cleavage kobs at 2500 uM GlcN6P: 0.000144 ± 2.3e-05 s⁻¹
glucosamine-6-phosphate [7]
  self-cleavage kobs at 10000 uM GlcN6P: 0.000149 ± 1.3e-05 s⁻¹

## AUAAAAGCGCCAGAACUACAGAAAUGUAGUUGACGAGGAGGAGGUUUAUCGAAUUUUCGGCGGAUACCUCCAAA [G66A]
glucosamine-6-phosphate [1]
  kcat: 0.0375 ± 0.011 s⁻¹
glucosamine-6-phosphate [2]
  KM: 2780 ± 890 µM
glucosamine-6-phosphate [3]
  self-cleavage kobs at 40 uM GlcN6P: 0.00059 ± 1.2e-05 s⁻¹
glucosamine-6-phosphate [4]
  self-cleavage kobs at 160 uM GlcN6P: 0.0016 ± 6.7e-05 s⁻¹
glucosamine-6-phosphate [5]
  self-cleavage kobs at 640 uM GlcN6P: 0.00697 ± 0.0004 s⁻¹
glucosamine-6-phosphate [6]
  self-cleavage kobs at 2500 uM GlcN6P: 0.016 ± 0.00099 s⁻¹
glucosamine-6-phosphate [7]
  self-cleavage kobs at 10000 uM GlcN6P: 0.0316 ± 0.0015 s⁻¹

## AUAAAAGCGCCAGAACUACAGAAAUGUAUUUGACGAGGACGAGGUUUAUCGAAUUUUCGGCGGAUGCCUCCAAA [G29U G40C]
glucosamine-6-phosphate [1]
  kcat: 0.000254 ± 6.3e-05 s⁻¹
glucosamine-6-phosphate [5]
  self-cleavage kobs at 640 uM GlcN6P: 0.000105 ± 2.4e-05 s⁻¹
glucosamine-6-phosphate [6]
  self-cleavage kobs at 2500 uM GlcN6P: 0.000138 ± 3.6e-05 s⁻¹
glucosamine-6-phosphate [7]
  self-cleavage kobs at 10000 uM GlcN6P: 0.000281 ± 5.2e-05 s⁻¹

## AUAAAAGCGCCCGAACUACAGAAAUGUAGUUGACGAGGAGGAGGUUUAUCGAAUUUUCGGCGGAUGUCUCCAAA [A12C C67U]
glucosamine-6-phosphate [1]
  kcat: 0.00763 ± 0.0029 s⁻¹
glucosamine-6-phosphate [2]
  KM: 2210 ± 1000 µM
glucosamine-6-phosphate [3]
  self-cleavage kobs at 40 uM GlcN6P: 0.000156 ± 1.3e-05 s⁻¹
glucosamine-6-phosphate [4]
  self-cleavage kobs at 160 uM GlcN6P: 0.000508 ± 5.5e-05 s⁻¹
glucosamine-6-phosphate [5]
  self-cleavage kobs at 640 uM GlcN6P: 0.00137 ± 0.0002 s⁻¹
glucosamine-6-phosphate [6]
  self-cleavage kobs at 2500 uM GlcN6P: 0.00322 ± 0.00048 s⁻¹
glucosamine-6-phosphate [7]
  self-cleavage kobs at 10000 uM GlcN6P: 0.00923 ± 0.0012 s⁻¹

## AUAAAAGCGCCAGGACUACAGAAAUGUAGUUGACGAGGAGGAGGUUUAUCGAAUUAUCGGCGGAUGCCUCCAAA [A14G U56A]
glucosamine-6-phosphate [1]
  kcat: 0.121 ± 0.022 s⁻¹
glucosamine-6-phosphate [2]
  KM: 1930 ± 400 µM
glucosamine-6-phosphate [3]
  self-cleavage kobs at 40 uM GlcN6P: 0.00249 ± 0.00036 s⁻¹
glucosamine-6-phosphate [4]
  self-cleavage kobs at 160 uM GlcN6P: 0.00984 ± 0.0021 s⁻¹
glucosamine-6-phosphate [5]
  self-cleavage kobs at 640 uM GlcN6P: 0.0275 ± 0.0058 s⁻¹
glucosamine-6-phosphate [6]
  self-cleavage kobs at 2500 uM GlcN6P: 0.0642 ± 0.024 s⁻¹
glucosamine-6-phosphate [7]
  self-cleavage kobs at 10000 uM GlcN6P: 0.126 ± 0.053 s⁻¹

## AUAAAAGCGCCAGAACUACAGAAAUGUAGUUGACGAGAAGGAGGUUUAUCGAAUUUUCGGCGGAUGCCUCGAAA [G38A C71G]
glucosamine-6-phosphate [1]
  kcat: < 1e-05 s⁻¹

## AUAAAAGCGCCAGAACUACAGAAAUGUACUUGCCGAGGAGGAGGUUUAUCGAAUUUUCGGCGGAUGCCUCCAAA [G29C A33C]
glucosamine-6-phosphate [1]
  kcat: < 1e-05 s⁻¹
glucosamine-6-phosphate [5]
  self-cleavage kobs at 640 uM GlcN6P: < 1e-05 s⁻¹

## AUAAAAGCGCCAGAGCUACAGAAAUGUAGUUGACGAGGAGGAGGUUUAUCGAAUUUCAGGCGGAUGCCUCCAAA [A15G U57C C58A]
glucosamine-6-phosphate [1]
  kcat: 3.45e-05 ± 4.1e-06 s⁻¹
glucosamine-6-phosphate [7]
  self-cleavage kobs at 10000 uM GlcN6P: 3.05e-05 ± 1.1e-05 s⁻¹

## AUAAAAGCGCCAGAACUACAGAAAUGUAGUUGACGAGGAGGAGGUUUAUCGAAUUGUCGGCGGUUGCCUCCAAA [U56G A64U]
glucosamine-6-phosphate [1]
  kcat: 9.52e-05 ± 2.5e-05 s⁻¹
glucosamine-6-phosphate [4]
  self-cleavage kobs at 160 uM GlcN6P: < 1e-05 s⁻¹
glucosamine-6-phosphate [6]
  self-cleavage kobs at 2500 uM GlcN6P: 3.01e-05 ± 1.5e-05 s⁻¹
glucosamine-6-phosphate [7]
  self-cleavage kobs at 10000 uM GlcN6P: 6.57e-05 ± 1.9e-05 s⁻¹

## AUAAAAGCGCCAGAACUACAGAAAUGUAGUGGACGAGGAGGAGGUUUAUCGAAUUUUCGGCGGAUGGCUCCAAA [U31G C67G]
glucosamine-6-phosphate [1]
  kcat: 0.000557 ± 2.6e-05 s⁻¹
glucosamine-6-phosphate [2]
  KM: 1760 ± 150 µM
glucosamine-6-phosphate [4]
  self-cleavage kobs at 160 uM GlcN6P: 4.63e-05 ± 8.1e-06 s⁻¹
glucosamine-6-phosphate [5]
  self-cleavage kobs at 640 uM GlcN6P: 0.00015 ± 1.7e-05 s⁻¹
glucosamine-6-phosphate [6]
  self-cleavage kobs at 2500 uM GlcN6P: 0.000303 ± 5.8e-05 s⁻¹
glucosamine-6-phosphate [7]
  self-cleavage kobs at 10000 uM GlcN6P: 0.00048 ± 4.6e-05 s⁻¹

## AUAAAAGCGCCAGAACUACAGAAAUGUAGUGGACGAGGACGAGGUUUAUCGAAUUUUCGGCGGAUGCCUCCAAA [U31G G40C]
glucosamine-6-phosphate [1]
  kcat: 0.00108 ± 0.00013 s⁻¹
glucosamine-6-phosphate [2]
  KM: 1280 ± 250 µM
glucosamine-6-phosphate [3]
  self-cleavage kobs at 40 uM GlcN6P: 2.49e-05 ± 8e-06 s⁻¹
glucosamine-6-phosphate [4]
  self-cleavage kobs at 160 uM GlcN6P: 0.000124 ± 2e-05 s⁻¹
glucosamine-6-phosphate [5]
  self-cleavage kobs at 640 uM GlcN6P: 0.000397 ± 5.8e-05 s⁻¹
glucosamine-6-phosphate [6]
  self-cleavage kobs at 2500 uM GlcN6P: 0.000864 ± 0.00017 s⁻¹
glucosamine-6-phosphate [7]
  self-cleavage kobs at 10000 uM GlcN6P: 0.0009 ± 0.00012 s⁻¹

## AUAAAAGCGCCAGAACUACAGAAAUGUAGUUGACGAGGAGGUGGUUUAUCGAAUUUUCGGCGGGUGCCUCCAAA [A42U A64G]
glucosamine-6-phosphate [1]
  kcat: 0.000148 ± 1.7e-05 s⁻¹
glucosamine-6-phosphate [2]
  KM: 1930 ± 650 µM
glucosamine-6-phosphate [5]
  self-cleavage kobs at 640 uM GlcN6P: 3.08e-05 ± 7.7e-06 s⁻¹
glucosamine-6-phosphate [6]
  self-cleavage kobs at 2500 uM GlcN6P: 0.000102 ± 1.3e-05 s⁻¹
glucosamine-6-phosphate [7]
  self-cleavage kobs at 10000 uM GlcN6P: 0.00012 ± 1.1e-05 s⁻¹
